The values below come from patent publication US8455435B2, “Remedies for ischemia” (Ludwig-Maximilians-Universitat Munchen, priority 2006, dated 2013).

Assay [1] deals with CD45+/CD34+ and CD34+/CXCR4+ cells in the heart. Put plainly: Flow cytometry of non myocyte cardiac cells after MI. The settings on record: AMD3100 1.25 mg/kg i.p. in G-CSF treated CD26 k.o. and G-CSF-DipA animals. The class given is in vivo, C57BL/6 and CD26 k.o. mice. On the procedure:
FIGS. 27A, 27C, 27E, Tab. S 3A; Nr. 2: FIGS. 27B, 27D, 27F, Tab. S 3B). Animal care and all experimental procedures were performed in strict accordance to the Guide for the Care and Use of Laboratory Animals published by the US National Institutes of Health (NIH publication No. 85-23, revised 1996). Mice were randomly divided into the following groups: […] G-CSF and/or Diprotin A treatment was initiated immediately after the surgical procedure. Cardiac cells from sham operated and infarcted hearts of wt and CD26 k.o. mice were analyzed 48 hours after MI (n=6). Therefore, a “myocyte-depleted” cardiac cell population was prepared, incubating minced myocardium in 0.1% collagenase IV (Gibco BrL) 30 min at 37° C., lethal to most adult mouse cardiomyocytes (Zhou et al., 2000). Cells were then filtered through a 70-μm mesh. […] Cells were stained with CD45-PerCP, CD34-FITC, CD26-FITC, c-kit-PE, Sca-1-PE, CXCR4-PE Flk-1, Flk-PE, CD3-biotin, CD45R/B220-biotin, CD11b-biotin, TER-119-biotin, Ly-6G-biotin Abs (all from BD Pharmingen) and subjected to flow cytometry using […] flow cytometer and Expo32 ADC Xa software (Beckman Coulter). For evaluation of SDF-1-CXCR4 dependent homing, G-CSF stimulated CD26 k.o. mice were treated i.p. with the CXCR4-antagonist AMD3100 (1.25 mg/kg). Cardiac cells were analyzed 8 hours after the last AMD3100 application. Each analysis included 50000 events.
Background: In flow cytometry, cells or beads pass a laser one at a time.

For another assay, the target named is CXCR4 (Mus musculus, UniProt P70658). Particulars: 48 hours after MI; cited from earlier work.
Another assay relates to cortical infarct. The settings on record: permanent middle cerebral artery occlusion; cited from earlier work.
For the next assay, the system named is myocardial infarction. Put plainly: Survival after MI (Kaplan-Meier; G-CSF, Diprotin A). The class given is in vivo, C57BL/6 and CD26 k.o. mice. On the procedure: (§1) MI was induced in 10 weeks old male CD26 k.o. or C57BL/6 mice by surgical occlusion of the left anterior descending artery (LAD) as described previously (Deindl et al., 2006). Experiments concerning survival and cardiac function were performed by two different operators (Nr. 1: FIGS. 27A, 27C, 27E, Tab. S 3A; Nr. 2: FIGS. 27B, 27D, 27F, Tab. S 3B). Animal care and all experimental procedures were performed in strict accordance to the Guide for the Care and Use of Laboratory Animals published by the US National Institutes of Health (NIH publication No. 85-23, revised 1996).
(§2) Mice were randomly divided into the following groups: Sham operated animals (n=20), infarcted wildtyp (n=20) (wt) receiving either saline (0.9% NaCl), G-CSF (100 μg/kg/d i.p.), Diprotin A (70 μg/kg/twice per day) or G-CSF+Diprotin A and CD26 k.o. animals (n=20) receiving either saline (0.9% NaCl) or G-CSF (100 μg/kg/d) for up to 6 days. G-CSF and/or Diprotin A treatment was initiated immediately after the surgical procedure.
Results were expressed as mean±s.e.m. Multiple group comparisons were performed by one-way analyses of variance (ANOVA) followed by the Bonferroni procedure for comparison of means. Comparisons between two groups were performed using the unpaired Student's t-test. Data were considered statistically significant at a value of p≦0.05. Mortality was analyzed by the Kaplan-Meier-method.

Assay [2] concerns TUNEL positive cardiomyocytes. Put plainly: TUNEL staining of apoptotic cardiomyocytes in the border zone after MI. The class given is in vivo, wt and CD26-/- mice. The settings on record: 2 days after MI, wt and CD26-/- animals, vs saline. As for the experimental part: as §2
(§3) For immunostaining the following primary antibodies were used: CD45 (rat anti-mouse, BD Pharmingen), CD31 (goat anti-mouse, Santa Cruz), Ki67 (goat anti-mouse, Santa Cruz). AEC was used as chromogen. Double staining for CD31 and Ki67 was performed using DAB as additional chromogen (all from Dako). Apoptotic cells were detected according to Harada et al. 2005 (Harada et al., 2005) using the TUNEL assay (ApopTag, MP Biomedicals). Digital photographs were taken at a magnification of ×400, and 10 random high-power fields (HPF) from the borderzone of each heart sample (n=3) were analyzed. Quantification of blood vessels was assessed by CD31^+ immunohistochemistry in the granulation tissue at the border zone. The numbers of CD31^+ capillaries were quantified from 10 random high power fields (HPF) with 400× magnification.

A further assay relates to CD45+/CD34+ progenitors. Put plainly: FACS of peripheral blood, stem cell mobilization by G-CSF. The assay is classed as in vivo, C57BL/6 and CD26 k.o. mice. The settings on record: G-CSF 100 μg/kg/d; wt (+/-Diprotin A) and CD26 k.o. mice vs saline. As for the experimental part:
10 weeks old CD26 k.o. (n=6) were either treated with G-CSF (100 μg/kg/d) or saline daily for 6 days and or C57BL/6 mice (n=6) were treated with saline, G-CSF, Diprotin A or both daily for 6 days. Cells were separated as described previously (Deindl et al., 2006). The following monoclonal antibodies were used: CD45-PerCP, CD34-FITC, CD31-PE, c-kit-PE, Sca-1-PE, CXCR4-PE, Flk-PE, CD3-biotin, CD45R/B220-biotin, CD11b-biotin, TER-119-biotin, Ly-6G-biotin (all from BD Pharmingen). Matching isotype antibodies (BD Pharmingen) served as controls. Cells were analyzed by 3-color flow cytometry using a Coulter® Epics® XL-MCL™ flow cytometer (Beckman Coulter). Each analysis included 50000 events.

Assay [3] concerns CD45+/CD34+ and CD45+/CD34- cell populations in peripheral blood. Put plainly: Flow cytometry of peripheral blood mononuclear cells after PTH or G-CSF in healthy mice. The assay is classed as in vivo, C57BL/6 mice. The settings on record: PTH day 6 and day 14; G-CSF day 6. On the procedure:
(§4) For the experiments healthy age- and sex-matched (male, 8-12 weeks of age) C57BL/6 mice (Charles River) were used. Animal care and all experimental procedures were performed in strict accordance to the German and National Institutes of Health animal legislation guidelines and were approved by the local animal care and use committees.
(§5) Mice were divided into the following groups: 1) administration of saline daily for 6 days, sacrificed at day 7 (n=6). 2) administration of PTH (Bachem) daily for 6 consecutive days (80 μg per kg body weight per day, intraperitoneally), sacrificed at day 7 (n=6). 3) administration of PTH daily for 14 consecutive days, sacrificed at day 15 (n=6). 4) administration of G-CSF (Amgen Biologicals) daily for 5 consecutive days (200 μg per kg body weight per day, intraperitoneally), sacrificed at day 6 (n=6).
(§6) at day 6, 1 ml of peripheral blood was harvested from each mouse by aspirating the carotid artery. Bone marrow cells were obtained by flushing the tibias and femurs from the euthanized mice. Mononuclear cells were separated by density-gradient centrifugation using 1.077 g/mL Histopaque solution (Sigma Chemicals), purified and resuspended in phosphate-buffered saline (PBS) containing 1% bovine serum albumin. Cells were incubated for 40 minutes in the dark at 4° C. with following fluorescein-isothiocyanate (FITC), phycoerythrin (PE), and peridinin-chlorphyll-protein (PerCP) conjugated monoclonal antibodies: CD45-PerCP, C34-FITC, CD31-PE, Sca-1-PE and c-kit-PE (all from BD Pharmingen). Isotype-identical antibodies (BD Pharmingen) served as controls. Cells were analyzed by 3-color flow cytometry using a Coulter® Epics® XL-MCL™ flow cytometer (Beckman Coulter). Each analysis included 20000 events. The absolute number of antigen-positive cells per ml of whole blood was calculated by multiplying the percentage of antigen-positive cells with the total number of mononuclear cells per ml of blood detected by the conventional hematological cell analyzer. The number of lymphocytes together with the number of monocytes comprised the total number of mononuclear cells.

For assay [4], the system named is CD45+/CD34+ and CD45+/CD34- cell populations in bone marrow. Put plainly: Flow cytometry of bone marrow cells after PTH or G-CSF in healthy mice. The class given is in vivo, C57BL/6 mice. As for the experimental part:
as §4, §5, §6

For the next assay, the system named is myocardial function. Put plainly: Pressure volume relations four weeks after MI (G-CSF, Diprotin A). The settings on record: day 30, CD26 k.o. mice. The class given is in vivo, C57BL/6 and CD26 k.o. mice. As for the experimental part:
as §1, §2
For evaluation of pressure-volume relationships in vivo, mice were anesthetised with thiopental (100 mg/kg, i.p.), intubated and ventilated (MiniVent, HUGO SACHS, Freiburg, Germany). After catheterization via the right carotid artery an impedance-micro manometer catheter (Millar Instruments, Houston, Tex.) was introduced into the left ventricle. Raw conductance volumes were corrected for parallel conductance by the hypertonic saline dilution method as described previously (Zaruba et al., 2008). Heamodynamic measurements as well as data analyses were performed by a blinded person using PVAN analysis software (HUGO SACHS, March, Germany).

A further assay has as its system infarcted heart. Put plainly: Histology and immunohistochemistry after MI: infarct size, LV wall thickness, CD31+ capillaries (G-CSF, Diprotin A). The assay is classed as in vivo, C57BL/6 and CD26 k.o. mice. On the procedure: as §1, §2
At day 6 (n=6) and day 30 (n=6), hearts were excised. After fixation in 4% phosphate buffered formalin the hearts were cut transversally into 2 mm thick slices and embedded in paraffin. 4 μm thick sections were cut and mounted on positively charged glass slides. […] Infarct size and wall thickness were determined according to Deindl et al. (Deindl et al., 2006).
as §3, with “AEC was used as chromogen. Double staining for CD31 and Ki67 was performed using DAB as additional chromogen (all from Dako).” left out

“Also recorded” adds a separate entry of the source.

Sequence of CXCR4 (P70658 whole entry): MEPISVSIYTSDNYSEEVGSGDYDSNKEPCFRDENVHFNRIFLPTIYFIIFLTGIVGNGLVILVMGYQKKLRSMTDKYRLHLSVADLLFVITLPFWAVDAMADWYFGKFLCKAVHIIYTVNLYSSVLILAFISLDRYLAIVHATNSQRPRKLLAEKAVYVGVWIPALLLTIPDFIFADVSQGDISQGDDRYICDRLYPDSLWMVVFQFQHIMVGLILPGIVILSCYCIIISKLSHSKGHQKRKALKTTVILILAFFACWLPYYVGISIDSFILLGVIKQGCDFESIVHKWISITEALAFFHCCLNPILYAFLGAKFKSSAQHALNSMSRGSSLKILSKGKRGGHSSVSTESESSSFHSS

As to `c1cc(CN2CCCNCCNCCCNCC2)ccc1CN1CCCNCCNCCCNCC1` [AMD3100], in [1], the “recruitment of CD34+/CXCR4+ cells into the heart after MI” value is “diminished the number; also recorded: reversed the recruitment”. The “decrease of bone marrow derived cell recruitment after MI” value on CXCR4 is given as 64%.

With “PTHrP(1-34): parathyroid hormone-related peptide fragment 1-34, SEQ ID NO:7”, the “decrease of cortical infarct size” value in the assay on cortical infarct is “up to 47%”.

B1: G-CSF: granulocyte colony stimulating factor (Amgen Biologicals) (protein, UniProt P09919 31-207, looked up)
Granulocyte …: TPLGPASSLPQSFLLKCLEQVRKIQGDGAALQEKLVSECATYKLCHPEELVLLGHSLGIPWAPLSSCPSQALQLAGCLSQLHSGLFLYQGLLQALEGISPELGPTLDTLQLDVADFATTIWQQMEELGMAPALQPTQGAMPAFASAFQRRAGGVLVASHLQSFLEVSYRVLRHLAQP
Molecule B1 came in with a survival rate in the assay with myocardial infarction (CD26 k.o. mice) of 75%. For the same molecule, the survival rate with myocardial infarction (wt animals) was 55%. Further, the “number of TUNEL positive cardiomyocytes in the border zone” value in assay [2] is “decreased apoptotic cell death; also recorded: reduced the number”. In the assay with CD45+/CD34+ progenitors, the “mobilization of CD45+/CD34+ progenitors in peripheral blood” value is reported as “significantly increased mobilization”. Besides, the “subtypes of CD45+/CD34+ and CD45+/CD34- cells in peripheral blood” value in assay [3] is “significant increase”. Besides, in [4] (G-CSF treatment, p<0.001), the “increase of CD45+/CD34- cells in bone marrow compared to saline treated mice” value worked out at 18.9%. The “subtypes of CD45+/CD34- cells in bone marrow” value in assay [4] (PTH day 6, G-CSF) is “significantly decreased”. The “subtypes of CD45+CD34+ cells in bone marrow” value in [4] (PTH day 6 or day 14, G-CSF vs control group) was “significant decrease”. In the assay with myocardial function, the “arterial afterload (arterial elastance)” value is “markedly reduced”, the “diastolic heart function (isovolumetric relaxation parameter Tau)” value is “improved diastolic heart function” and the “ventricular dilation measured by enddiastolic volumes” value is on record as “attenuated ventricular dilation”. Moreover, the “number of CD31+ capillaries at the infarct borderzone” value in the assay with infarcted heart (6 days after MI, CD26 k.o. animals) is given as “Increased neovascularization; also recorded: significantly increased number”. Further, in the assay on infarcted heart (day 30, CD26 k.o. animals), the “size of LV infarction (scar tissue)” value was “smaller” and the “thickness of the left ventricular wall” value was “significantly improved thickness; also recorded: significantly ameliorated”.
